Columns and labels:
Conditions in all cases: room temperature 30-45 min, BLI: 20 mM Tris-HCl pH 7.4, 80 mM NaCl, 20 mM KCl, 1 mM DTT
[1] = system: Hantavirus nucleocapsid protein (NP), wild type (Sin Nombre virus); assay: filter binding
[2] = system: Hantavirus nucleocapsid protein (NP), wild type (Sin Nombre virus); assay: filter binding; remark: listed apart in the source
[3] = system: Hantavirus nucleocapsid protein (NP), wild type (Sin Nombre virus); assay: BLI
[4] = system: Hantavirus nucleocapsid protein (NP), wild type (Sin Nombre virus); assay: filter binding; remark: listed apart in the source
[5] = system: Hantavirus nucleocapsid protein (NP), wild type (Sin Nombre virus); assay: filter binding; remark: listed apart in the source

Row | Substance | Kd [1] [nM] | Kd [2] [nM] | Kd [3] [nM] | Kd [4] [nM] | Kd [5] [nM]
1 | Mutant 3 (mutant 1 lacking nt 530-542) | 2400 | 2400 | – | – | –
2 | VCP mRNA 5' UTR wild type | 47 | – | 25 | – | –
3 | Mutant 4 (wild type UTR lacking nt 530-542) | 3900 | – | – | 1400 | –
4 | Mutant 1 (VCP 5' UTR nt 1-542) | 42.2 | – | – | – | –
5 | Mutant 2 (VCP 5' UTR nt 542-988) | 1900 | – | – | – | 1600

From article PMC10798635
